Experimental data: patent US10556936B2, “Immunogenic proteins and fragments thereof from allergenic mites” (ALK-ABELLÓ A/S, priority 2016, dated 2020)

B1: A018: house dust mite protein; SEQ ID NO: 5 (Der f), 6 (Der p), 314 (Blo t) (protein)
chain: MVKAVVVLKGDPNVSGTIFFEQQDNGPVKVTGSVQGLKPGLHGFHVHEFGDNTNGCTSAGAHYNPLNKTHGAPNDEERHVGDLGNIEANDKGVANVVIEDSLISLTGEKSIVGRSLVVHADPDDLGRGGHELSKTTGNAGGRLVCGVIGVTK
B2: A019: house dust mite protein; SEQ ID NO: 1 (Der f), 4 (Der p), 315 (Blo t) (protein)
chain: QVYCNGAAIVSAARSQIGVPYSWGGGGIHGKSRGIGEGANTVGFDCSGLAQYSVYQGTHKVLARVASGQYSDPKCHHVAYGSHQPGDLVFFGNPIHHVGIVSAHGRMINAPHTGTNVREENIWSDHIANVARCW

How the values were obtained:
Format in all cases: cell-based, human
[1] = test system: basophils in whole blood from HDM allergic donors; assay: Basophil Activation Test (BAT); conditions: blood from HDM allergic individuals (n=14)
How it was run: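 Whole blood from HDM-allergic donors (n=14) was stimulated for 1 h with test proteins across a concentration range, e.g. 1, 10, 100 or 1000 ng/ml. Basophil surface activation markers were measured by flow cytometry, with Der p 1 and Der p 2 tested at the same concentrations as controls.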

[2] = test system: T cell lines obtained from HDM allergic individuals and non-allergics; assay: In vitro T cell proliferation test in T cell lines (Example 3); conditions: 0.5 or 2 ug/ml, 72 h; for % responders of in-vitro T cell proliferation test, Allergic: T cell lines from HDM allergic individuals (n=30); for % responders of in-vitro T cell proliferation test, Non-allergics: T cell lines from non-allergics (n=8)
How it was run: (§1)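 Freshly isolated PBMC (5×10^6/ml) from mite-allergic patients or non-allergics cultured 5 days with test protein up to 10 ug/ml; IFN-gamma, IL-9, IL-10, IL-17, IL-31 in supernatants by multiplex immunoassay. T cell lines, raised 3 weeks on HDM extract, tested at 0.5 or 2 ug/ml protein in 72 h proliferation assay.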

[3] = test system: PBMC cells obtained from mite allergic patients and non-allergics; assay: Ex vivo stimulation of PBMC: cytokine production (IFN-gamma, IL-9, IL-10, IL-17, IL-31)
How it was run: as §1

Row | Molecule | # of individuals of 14 with positive BAT test ([1]; 1 ng/ml) | # of individuals of 14 with positive BAT test ([1]; 10 ng/ml) | # of individuals of 14 with positive BAT test ([1]; 100 ng/ml) | # of individuals of 14 with positive BAT test ([1]; 1000 ng/ml) | % responders of in-vitro T cell proliferation test, Allergic [2] [%] | % responders of in-vitro T cell proliferation test, Non-allergics [2] [%] | % HDM allergic individuals with cytokine production in ex-vivo T cell assay IL-5 [3] [%] | % HDM allergic individuals with cytokine production in ex-vivo T cell assay IL-9 [3] [%] | % HDM allergic individuals with cytokine production in ex-vivo T cell assay IL-10 [3] [%] | % HDM allergic individuals with cytokine production in ex-vivo T cell assay IL-13 [3] [%] | % HDM allergic individuals with cytokine production in ex-vivo T cell assay IL-17 [3] [%] | % HDM allergic individuals with cytokine production in ex-vivo T cell assay IL-31 [3] [%] | % HDM allergic individuals with cytokine production in ex-vivo T cell assay INF-g [3] [%] | % non-allergic individuals with cytokine production in ex-vivo T cell assay IL-5 [3] [%] | % non-allergic individuals with cytokine production in ex-vivo T cell assay IL-9 [3] [%] | % non-allergic individuals with cytokine production in ex-vivo T cell assay IL-10 [3] [%] | % non-allergic individuals with cytokine production in ex-vivo T cell assay IL-13 [3] [%] | % non-allergic individuals with cytokine production in ex-vivo T cell assay IL-17 [3] [%] | % non-allergic individuals with cytokine production in ex-vivo T cell assay IL-31 [3] [%] | % non-allergic individuals with cytokine production in ex-vivo T cell assay INF-g [3] [%]
1 | B1 | 0 | 0 | 0 | 0 | 0 | 0 | 0 | 6 | 56 | 13 | 44 | 6 | 19 | 0 | 0 | 67 | 17 | 83 | 0 | 33
2 | B2 | 2 | 2 | 2 | 4 | 39 | 13 | 38 | 56 | 75 | 56 | 100 | 13 | 50 | 0 | 0 | 100 | 0 | 100 | 17 | 100
